Data from US7998940B2, “Aptamers to von Willebrand factor and their use as thrombotic disease therapeutics” (Archemix Corp., priority 2004, dated 2011).
Changes are numbered by the printed parent chain. Like-named read-outs stand apart in the source and are kept apart here. Oligonucleotides are written 5' to 3', each unit as a sugar letter and its base; * is a phosphorothioate linkage, no mark a phosphodiester; rarer units and linkages stand in square brackets, end groups in braces. Plain capitals give the bases only. [invdT] = inverted (3'-3') thymidine; d = 2'-deoxy (DNA); m = 2'-O-methyl; r = 2'-OH (RNA); f = 2'-fluoro

B1: AMX206.D8: rRdY aptamer clone (nucleic acid)
chain: rGrGrArGdCrGdCrAdCdTdCrArGdCdCrAdCrGrAdCrGrGdTrGrAdTrGrGrAdTdTrArGdCrGdCrGrGdTrGrGrAdTdCdTdTrArAdCrGdTrGdCrGrArGdTdTdTdCrGrAdCdCdTdCdTdCdTrGdCdTrArGdC
B2: AMX237.A2: DNA SELEX 2 aptamer clone (nucleic acid)
chain: CTACCTACGATCTGACTAGCTCCAGTGTTTCATCCAATAACCGTGCGGTGCCTCCGTGAGCTTACTCTCATGTAGTTCC
modifications: DNA, backbone and methylation of C not given here
notes: DNA SELEX 2 aptamer clone
B3: AMX237.A11: DNA SELEX 2 aptamer clone (nucleic acid)
chain: B2 chain with C31T
modifications: DNA, backbone and methylation of C not given here
notes: DNA SELEX 2 aptamer clone
B4: AMX238.G5: DNA SELEX 2 aptamer clone (nucleic acid)
DNA: B2 chain with C31T, C34T
modifications: DNA, backbone and methylation of C not given here
notes: DNA SELEX 2 aptamer clone
B5: AMX238.D12: DNA SELEX 2 aptamer clone (nucleic acid)
DNA: B2 chain with C34T
modifications: DNA, backbone and methylation of C not given here
notes: DNA SELEX 2 aptamer clone
B6: AMX237.B11: DNA SELEX 2 aptamer clone (nucleic acid)
DNA: B2 chain with C31T, C35T
modifications: DNA, backbone and methylation of C not given here
notes: DNA SELEX 2 aptamer clone
B7: AMX201.C8: rRfY aptamer clone (nucleic acid)
chain: rGrGrArGfCrGfCrAfCfUfCrArGfCfCrAfCfCfCfUfCrGfCrArArGfCrAfUfUfUfUrArArGrArAfUrGrAfCfUfUrGfUrGfCfCrGfCfUrGrGfCfUrGfUfUfUfUfCrGrAfCfCfUfCfUfCfUrGfCfUrArGfC
B8: AMX205.H10: rRdY aptamer clone (nucleic acid)
chain: rGrGrArGdCrGdCrAdCdTdCrArGdCdCrAdCdTrGdTdTrGdCdCrGrAdCrGrGdTrGrAdTrGdTrAdTdTrArAdCrGdCrGrGrGdCrArAdCrGdTdTrGrGdTrGdTdTdTdCrGrAdCdCdTdCdTdCdTrGdCdTrArGdC
B9: AMX237.G6: DNA SELEX 2 aptamer clone (nucleic acid)
DNA: CTACCTACGATCTGACTAGCGTGCAGTGCCTATTCCAGGCCGTGCGGTGCCTCCGTCACGCTTACTCTCATGTAGTTCC
modifications: DNA, backbone and methylation of C not given here
notes: DNA SELEX 2 aptamer clone
B10: AMX205.F7: rRdY aptamer clone (nucleic acid)
chain: rGrGrArGdCrGdCrAdCdTdCrArGdCdCrAdCrAdCrGrAdCrAdTdTrGrGdCrGrGrGdTdTrGdTrArAdTdTrAdCdCrAdCrGdCrAdTrGrGdCdTrGdTdTdTrGdTdTdTdCrGrAdCdCdTdCdTdCdTrGdCdTrArGdC
B11: AMX203.G9: rRdY aptamer clone (nucleic acid)
chain: rGrGrArGdCrGdCrAdCdTdCrArGdCdCrAdCrGrGrGrGdTrGrGrGdTrArGrAdCrGrGdCrGrGrGdTrAdTrGdTrGrGdCdTrGrGdTrGdTdCrGrArArGrGrGdTdTdTdCrGrAdCdCdTdCdTdCdTrGdCdTrArGdC

What was measured:
[1] = tested on: full length human vWF binding to lyophilized platelets; test: Full length human von Willebrand Factor platelet binding assay (FACS); assay type: cell-based; conditions: for Inhibition of full length hVWF binding in FACS assay, IC50 range: both bounds in nM
Outline: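 Aptamer titrations (0.1–1000 nM) pre-incubated with 5 nM full-length human vWF, then added to lyophilized platelets plus botrocetin for 15 min at 37 °C in PBS/0.5% BSA. Bound vWF detected by anti-vWF then FITC secondary antibody via flow cytometry MFI; % inhibition versus no-aptamer binding fitted for IC50.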

[2] = tested on: rabbit vWF domain A1 binding to lyophilized platelets; test: Rabbit von Willebrand Factor domain A1 platelet binding assay (FACS); assay type: cell-based
Chain of rabbit vWF domain A1 binding to lyophilized platelets (as listed by the source): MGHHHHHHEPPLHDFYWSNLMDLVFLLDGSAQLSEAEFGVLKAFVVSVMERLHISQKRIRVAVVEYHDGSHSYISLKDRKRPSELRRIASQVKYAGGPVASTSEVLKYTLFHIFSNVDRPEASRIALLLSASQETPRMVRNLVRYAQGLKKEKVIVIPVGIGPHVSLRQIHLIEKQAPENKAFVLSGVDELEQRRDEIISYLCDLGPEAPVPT
Outline: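 Aptamers (0.1–1000 nM) preincubated with 4 nM His-tagged rabbit vWF A1 in PBS/0.5% BSA, then lyophilized human platelets plus botrocetin added, 15 min at 37 °C. Bound A1 detected by anti-His-biotin and PE secondary via flow cytometry (median fluorescence, background-subtracted); IC50 fitted from percent inhibition.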

full length human vWF = test: 3-point dot blot screen, full length human vWF; assay type: binding; conditions: 20 nM full length human vWF, ratio of fraction of aptamer bound with target protein to fraction bound without protein
Outline: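 Unique aptamer clones tested twice by nitrocellulose dot blot with no protein, 20 nM full-length human vWF or 20 nM rabbit vWF A1 domain. Value is fraction of aptamer bound with target divided by fraction bound without protein.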

[3] = read-out: FACS IC50 vs human full length vWF
[4] = read-out: FACS IC50 vs rabbit A1 domain
[5] = 5 nM full length human vWF, lyophilized platelets, botrocetin
[6] = 4 nM rabbit A1 vWF, lyophilized platelets, botrocetin, both bounds in nM
[7] = 5 nM full length human vWF, lyophilized platelets, botrocetin, read-out: Inhibition of full length hVWF binding in FACS assay, Average IC50
[8] = 5 nM full length human vWF, lyophilized platelets, botrocetin, units in the cell: lower bound pM, upper bound nM, read-out: Inhibition of full length hVWF binding in FACS assay, IC50 range
[9] = 4 nM rabbit A1 vWF, lyophilized platelets, botrocetin, both bounds in nM, read-out: Inhibition of rabbit VWF A1 domain binding in FACS assay, IC50 range
[10] = 4 nM rabbit A1 vWF, lyophilized platelets, botrocetin, read-out: Inhibition of rabbit VWF A1 domain binding in FACS assay, Average IC50

Molecule	IC50 [1, 7] [pM]	IC50 [1, 8] [pM]	IC50 [2, 9] [nM]	Screen- Human/No Protein (full length human vWF)	other results
dGdGdCdGTdGdCdAdGTdGdCdCTTdCdGdGdCdCdGTdGdCdGdGTdGdCdCTdCdCdGTdCdAdCdGdCdC-3T (DNA GGCGTGCAGTGCCTTCGGCCGTGCGGTGCCTCCGTCACGCC; DNA, [invdT] at 3' end, backbone and methylation of C not given here) [ARC1172, ARC1115 with 3'-inverted dT]					IC50 [1, 3]: 2000 pM; IC50 [2, 4]: 2 nM
mGmCmGmUdGdCdAmGmUmGmCmCmUmUmCmGmGmCdCmG-s-TmGdCdGdGTmGmCdCmUdCdCmGmUdCmAmCmGmC-3T (GCGUGCAGUGCCUUCGGCCGTGCGGTGCCUCCGUCACGC; sugars from the 5' end mmmmdddmmmmmmmmmmmdmdmddddmmdmddmmdmmmm, [invdT] at 3' end, backbone not given here) [ARC1368]					IC50 [1, 3]: 2000 pM; IC50 [2, 4]: 4 nM
B1					Inhibition of full length hVWF binding in FACS assay, IC50 range [1, 5]: no activity; Inhibition of rabbit VWF A1 domain binding in FACS assay, IC50 range [2, 6]: no activity
B2	3500	815 to 7300	7	2.60	
B3	2200	466 to 5600	4.7	2.66	
B4	1100	273 to 2600	5.5	3.06	
B5	2000	684 to 3400	7.2	2.40	
B6	2500	151 to 4800	5.7	2.87	
B7	528	24 to 1800			IC50 [2, 10]: 0.682 nM
B8					Inhibition of full length hVWF binding in FACS assay, IC50 range [1, 5]: no activity; Inhibition of rabbit VWF A1 domain binding in FACS assay, IC50 range [2, 6]: no activity
B9	1900			3.80	
B10	818	321 to 1600			IC50 [2, 10]: 4.7 nM
B11	4700				IC50 [2, 10]: 0.592 nM; IC50 ([2]; 4 nM rabbit A1 vWF, lyophilized platelets, botrocetin, units in the cell: lower bound pM, upper bound nM, read-out: Inhibition of rabbit VWF A1 domain binding in FACS assay, IC50 range): 0.152 to 1.6 nM
